The source of these data is patent US20100291097A1 (AC IMMUNE S A, published 2010).

One test has as its target Aβ1-42 peptide. The test can be described thus: cell-based or functional assay.
The target in test [1] is T1, Aβ17-40 peptide, biotinylated (Anaspec) (biotinylated (position not given)).
T1 peptide: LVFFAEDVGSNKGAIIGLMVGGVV
The test is described as follows: ELISA on longer biotinylated Aβ peptides. An excerpt: (§1) The peptides in the peptide library were composed of 8, 9 or 10-mer aa peptides. A biotinylated complete Aβ₁₋₄₂ peptide (human sequence) was used as positive control (Bachem, Bubendorf, Switzerland). In addition, longer peptides covering Aβ1-28, Aβ17-40, Aβ1-40 and Aβ₁₋₄₂ were used to define the broader region to which these antibodies may bind. These 4 peptides were also biotinlyated (manufactured by Anaspec and purchased from ANAWA Trading SA, Switzerland). Epitope mapping was done according to the manufacturer's (Mimotopes) instructions. Briefly, Streptavidin coated plates (NUNC, Roskilde, Denmark) were blocked with 0.1% BSA in PBS overnight at 4° C. After washing with PBS-0.05% Tween 20, plates were coated for 1 hour at RT with the different peptides from the library, diluted in 0.1% BSA, 0.1% Sodium Azide in PBS to a final concentration of 10 μM. […] Plates were washed again and incubated with alkaline phosphatase conjugated goat anti mouse IgG (Jackson Immunresearch West Grove, Pa., USA) for 1 h at RT. After final washing, plates were incubated with phosphatase substrate (pNPP, Sigma-Aldrich, St Louis, Mo., USA) and read after 3 hours of incubation at 405 nm using an ELISA plate reader.

Test [2] addresses T1, Aβ17-40 peptide, biotinylated (Anaspec). The test is described as follows: ELISA, biotin-peptide on streptavidin, Ab 10 µg/ml; mean of 2, background subtracted.
Description: as §1
For orientation: An ELISA detects its analyte on a solid surface through an enzyme-linked reagent.

Test [3] addresses T2, Aβ1-40 peptide, biotinylated (Anaspec) (biotinylated (position not given)).
T2 construct: also called Ab1-40
The test is described as above.
Description: as §1

Test [4] has as its target T3, Aβ1-42 peptide, biotinylated (Anaspec) (biotinylated (position not given)).
T3 construct: also called 1-42A
The test is described as above.
Description: as §1

Test [5] addresses T4, Biotinylated complete Aβ1-42 peptide (human sequence, Bachem) (human, biotinylated (position not given)).
T4 construct: also called 1-42B; Aβ1-42 (positive control of the peptide library ELISA)
The description is as above.
Description: as §1

Test [6] addresses T4, Biotinylated complete Aβ1-42 peptide …. The test is described as follows: peptide library ELISA, positive control, Ab 10 µg/ml.
Description: as §1

T4 sequence (peptide, as listed by the source): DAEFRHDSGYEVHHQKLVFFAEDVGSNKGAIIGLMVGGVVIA
Sequence of Aβ1-42 peptide (peptide, as listed by the source): as above
T3 sequence (peptide, as listed by the source): as above

B1: ACI-11-Ab-9 monoclonal antibody (antibody, V domains shown)
VH: QVQLQQSDAELVKPGASVKISCKVSGYTFTDHTIHWMKQRPEQGLEWIGYIYPRDGSTKYNEKFKGKATLTADKSSSTAYMQLNSLTSEDSAVYFCARDYGYAFDYWGQGTTLTVSS
VL: QAVVTQESALTTSPGGTVILTCRSSTGAVTTSNYANWVQEKPDHLFTGLIGGTSNRAPGVPVRFSGSLIGDKAALTITGAQTEDDAMYFCALWYSTHYVFGGGTKVTVL
notes: Mouse monoclonal IgG from hybridoma FG1F9E4 (DSM ACC2845); also called clone FG1F9E4
Consider B1, for which the “disaggregation of pre-aggregated Aβ1-42, thioflavin T assay, molar ratio 1:10” value with Aβ1-42 peptide stood at 52%. In the test with Aβ1-42 peptide, the “disaggregation of pre-aggregated Aβ1-42, thioflavin T assay, molar ratio 1:100” value came out at 22%. Further, the “inhibition of Aβ1-42 aggregation, thioflavin T assay, molar ratio 1:10” value in the test with Aβ1-42 peptide is 69%. In addition, the “inhibition of Aβ1-42 aggregation, thioflavin T assay, molar ratio 1:100” value with Aβ1-42 peptide was determined as 34%. The binding result in test [1] is listed as “no binding (tested: 10 µg/ml)”. For the same molecule, the O.D. worked out at 0.02 O.D in test [2], 1.02 O.D in test [3], 0.78 O.D in test [4] and 1.54 O.D in test [5].

B2: ACI-12-Ab-11 monoclonal antibody (antibody, V domains shown)
VH: B1 VH
VL: B1 VL
notes: Mouse monoclonal IgG from hybridoma FK2A6A6 (DSM ACC2846); also called ACI-12-Ab-11 (clone: FK2A6A6); clone FK2A6A6
As to B2, the “disaggregation of pre-aggregated Aβ1-42, thioflavin T assay, molar ratio 1:10” value in the test with Aβ1-42 peptide was 54%. The “disaggregation of pre-aggregated Aβ1-42, thioflavin T assay, molar ratio 1:100” value with Aβ1-42 peptide stood at 18%. In the test with Aβ1-42 peptide, the “inhibition of Aβ1-42 aggregation, thioflavin T assay, molar ratio 1:10” value stood at 66%. Besides, the “inhibition of Aβ1-42 aggregation, thioflavin T assay, molar ratio 1:100” value in the test with Aβ1-42 peptide is 30%. Also, the O.D. was 0.69 O.D in test [6]; -0.02 O.D in test [2]; 0.62 O.D in test [3]; 0.44 O.D in test [4]; 1.07 O.D in test [5].
